Results from US20090311282A1.

Columns and labels:
[1] = biological target: GDF8 protein (R&D Systems Inc., Minneapolis, Minn.) (UniProt O14793); test: cell-based or functional assay
[2] = biological target: DJ5 peptide (GDF8 residues 327-346) (human); test: ELISA, peptide coated 500 ng/well; MAB 788 10 mg/ml diluted 1:80
[3] = biological target: DJ1 peptide (GDF8 residues 267-286) (human); test: as above
[4] = biological target: DJ7 peptide (GDF8 residues 357-375) (human); test: as above
[5] = biological target: DJ3 peptide (GDF8 residues 297-316) (human); test: as above
[6] = biological target: DJ4 peptide (GDF8 residues 312-331) (human); test: as above
[7] = biological target: DJ6 peptide (GDF8 residues 342-361) (human); test: as above
[8] = biological target: DJ2 peptide (GDF8 residues 282-301) (human); test: as above
[9] = biological target: purified GDF8 prohormone with C-terminal FLAG epitope (GDF8 prohormone-FLAG fusion protein) (human) (UniProt O14793); test: ELISA, purified GDF8 prohormone coated 250 ng/well; MAB 788 10 mg/ml diluted 1:40
[10] = biological target: DJ5 peptide (GDF8 residues 327-346) (human); test: ELISA, peptide coated 500 ng/well; MAB 788 10 mg/ml diluted 1:40
[11] = biological target: DJ1 peptide (GDF8 residues 267-286) (human); test: as above
[12] = biological target: DJ7 peptide (GDF8 residues 357-375) (human); test: as above
[13] = biological target: DJ3 peptide (GDF8 residues 297-316) (human); test: as above
[14] = biological target: DJ4 peptide (GDF8 residues 312-331) (human); test: as above
[15] = biological target: DJ6 peptide (GDF8 residues 342-361) (human); test: as above
[16] = biological target: DJ2 peptide (GDF8 residues 282-301) (human); test: as above
[17] = biological target: purified GDF8 prohormone with C-terminal FLAG epitope (GDF8 prohormone-FLAG fusion protein) (human) (UniProt O14793); test: ELISA, purified GDF8 prohormone coated 250 ng/well; MAB 788 10 mg/ml diluted 1:20
[18] = biological target: purified GDF8 prohormone with C-terminal FLAG epitope (GDF8 prohormone-FLAG fusion protein) (human) (UniProt O14793); test: ELISA, purified GDF8 prohormone coated 250 ng/well; MAB 788 10 mg/ml diluted 1:80
[19] = biological target: DJ5 peptide (GDF8 residues 327-346) (human); test: ELISA, peptide coated 500 ng/well; MAB 788 10 mg/ml diluted 1:20
[20] = biological target: DJ1 peptide (GDF8 residues 267-286) (human); test: as above
[21] = biological target: DJ7 peptide (GDF8 residues 357-375) (human); test: as above
[22] = biological target: DJ3 peptide (GDF8 residues 297-316) (human); test: as above
[23] = biological target: DJ4 peptide (GDF8 residues 312-331) (human); test: as above
[24] = biological target: DJ6 peptide (GDF8 residues 342-361) (human); test: as above
[25] = biological target: DJ2 peptide (GDF8 residues 282-301) (human); test: as above

DJ3 peptide (GDF8 residues 297-316) (human), sequence (peptide, as listed by the source): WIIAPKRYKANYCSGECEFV
DJ6 peptide (GDF8 residues 342-361) (human), sequence (peptide, as listed by the source): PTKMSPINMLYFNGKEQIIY
DJ7 peptide (GDF8 residues 357-375) (human), sequence (peptide, as listed by the source): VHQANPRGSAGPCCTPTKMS
DJ4 peptide (GDF8 residues 312-331) (human), sequence (peptide, as listed by the source): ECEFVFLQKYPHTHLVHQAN
DJ2 peptide (GDF8 residues 282-301) (human), sequence (peptide, as listed by the source): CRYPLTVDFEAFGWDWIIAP
DJ1 peptide (GDF8 residues 267-286) (human), sequence (peptide, as listed by the source): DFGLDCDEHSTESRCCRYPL

Q: For “normal goat IgG (negative control purified from non-immunized goat sera) (antibody)”, which % Inhibition of GDF8 Activity (250 µg IgG), A204 CAGA-luciferase transcriptional activation assay [1] is on record?
A: 0%

Q: For “Rat monoclonal antibody 788 (R&D Systems Inc., Cat. No. MAB788)”, which OD 405/minute × 1000 (OD 405/minute × 1000) [2] is on record?
A: 102

Q: And the OD 405/minute × 1000 (OD 405/minute × 1000) [3]?
A: 0

Q: And the OD 405/minute × 1000 (OD 405/minute × 1000) [4]?
A: 0

Q: And the OD 405/minute × 1000 (OD 405/minute × 1000) [5]?
A: 0

Q: And the OD 405/minute × 1000 (OD 405/minute × 1000) [6]?
A: 0

Q: And the OD 405/minute × 1000 (OD 405/minute × 1000) [7]?
A: 0

Q: And the OD 405/minute × 1000 (OD 405/minute × 1000) [8]?
A: 0

Q: What about the OD 405/minute × 1000 (OD 405/minute × 1000) [9] of the same substance?
A: 127

Q: And the OD 405/minute × 1000 (OD 405/minute × 1000) [10]?
A: 118

Q: What about the OD 405/minute × 1000 (OD 405/minute × 1000) [11] of the same substance?
A: 0

Q: What about the OD 405/minute × 1000 (OD 405/minute × 1000) [12] of the same substance?
A: 0

Q: What about the OD 405/minute × 1000 (OD 405/minute × 1000) [13] of the same substance?
A: 0

Q: And the OD 405/minute × 1000 (OD 405/minute × 1000) [14]?
A: 0

Q: And the OD 405/minute × 1000 (OD 405/minute × 1000) [15]?
A: 0

Q: And the OD 405/minute × 1000 (OD 405/minute × 1000) [16]?
A: 0

Q: And the % Inhibition of GDF8 Activity (0.1 µg IgG), A204 CAGA-luciferase transcriptional activation assay [1]?
A: 0%

Q: And the % Inhibition of GDF8 Activity (1.8 µg IgG), A204 CAGA-luciferase transcriptional activation assay [1]?
A: 0%

Q: What about the % Inhibition of GDF8 Activity (3.1 µg IgG), A204 CAGA-luciferase transcriptional activation assay [1] of the same substance?
A: 7%

Q: And the % Inhibition of GDF8 Activity (6.3 µg IgG), A204 CAGA-luciferase transcriptional activation assay [1]?
A: 17%

Q: What about the % Inhibition of GDF8 Activity (12.5 µg IgG), A204 CAGA-luciferase transcriptional activation assay [1] of the same substance?
A: 47%

Q: And the OD 405/minute × 1000 (OD 405/minute × 1000) [17]?
A: 132

Q: What about the OD 405/minute × 1000 (OD 405/minute × 1000) [18] of the same substance?
A: 132

Q: What about the OD 405/minute × 1000 (OD 405/minute × 1000) [19] of the same substance?
A: 133

Q: What about the OD 405/minute × 1000 (OD 405/minute × 1000) [20] of the same substance?
A: 4

Q: And the OD 405/minute × 1000 (OD 405/minute × 1000) [21]?
A: 0

Q: And the OD 405/minute × 1000 (OD 405/minute × 1000) [22]?
A: 0

Q: What about the OD 405/minute × 1000 (OD 405/minute × 1000) [23] of the same substance?
A: 0

Q: And the OD 405/minute × 1000 (OD 405/minute × 1000) [24]?
A: 0

Q: What about the OD 405/minute × 1000 (OD 405/minute × 1000) [25] of the same substance?
A: 0
